Biological target: the molecule itself
Experiment: SEC

B1: MCAK-His6 (purified full-length MCAK) (enzyme, UniProt Q99661 1-725, looked up)
chain: MAMDSSLQARLFPGLAIKIQRSNGLIHSANVRTVNLEKSCVSVEWAEGGATKGKEIDFDDVAAINPELLQLLPLHPKDNLPLQENVTIQKQKRRSVNSKIPAPKESLRSRSTRMSTVSELRITAQENDMEVELPAAANSRKQFSVPPAPTRPSCPAVAEIPLRMVSEEMEEQVHSIRGSSSANPVNSVRRKSCLVKEVEKMKNKREEKKAQNSEMRMKRAQEYDSSFPNWEFARMIKEFRATLECHPLTMTDPIEEHRICVCVRKRPLNKQELAKKEIDVISIPSKCLLLVHEPKLKVDLTKYLENQAFCFDFAFDETASNEVVYRFTARPLVQTIFEGGKATCFAYGQTGSGKTHTMGGDLSGKAQNASKGIYAMASRDVFLLKNQPCYRKLGLEVYVTFFEIYNGKLFDLLNKKAKLRVLEDGKQQVQVVGLQEHLVNSADDVIKMIDMGSACRTSGQTFANSNSSRSHACFQIILRAKGRMHGKFSLVDLAGNERGADTSSADRQTRMEGAEINKSLLALKECIRALGQNKAHTPFRESKLTQVLRDSFIGENSRTCMIATISPGISSCEYTLNTLRYADRVKELSPHSGPSGEQLIQMETEEMEACSNGALIPGNLSKEEEELSSQMSSFNEAMTQIRELEEKAMEELKEIIQQGPDWLELSEMTEQPDYDLETFVNKAESALAQQAKHFSALRDVIKALRLAMQLEEQASRQISSKKRPQ
For B1, the “stoichiometry N” value was 2.

Reference: paper doi:10.1101/067827 (bioRxiv, 2016)
